# Measurements as given in patent US20260183437A1, “VHH ANTIBODY CONJUGATES WITH HETEROARYL CHELATORS” (ABDERA THERAPEUTICS INC., priority 2022, published 2026).
# pKd: −log10 of the molar value.
# How the values were obtained:
# SHP-77 cells = test: Internalization assay (pHAb dye labelled secondary antibody, flow cytometry); format: cell-based; settings: 75 nM, 37° C.
# Description: (§1) VHH-Fcs were tested for internalization by target-expressing cells using a secondary antibody conjugated to a pH sensitive dye. Goat anti-hu IgG-Fc secondary antibody was amine-conjugated to a pH sensitive pHAb dye (Promega Cat #G9845) according to the manufacturer's instructions. The pHAb dye has low or no fluorescence at pH>7 but fluoresces in acidic environment upon antibody internalization. […] VHH-Fcs and hIgG1 isotype control were diluted in media to 75 nM. Cells were spun to remove supernatant, resuspended with the prepared primary antibodies and incubated on ice for 1 hour. Excess primary antibody was washed off from cells and then incubated with pHAb labelled secondary antibody on ice for 30 minutes. Excess secondary was then washed off and cells were resuspended in media. One set of samples was placed in an incubator at 37° C. to allow internalization, and another set was left on ice (0° C.) as a binding only control. Cells were sampled at different time points ranging from 0 to 24 hours. Cells were stained with DAPI and read by flow cytometry on 572/28 channel with iQue screener platform. The VHH-Fcs show higher fluorescence than the negative controls (isotype, buffer) on target-positive cells.
# HEK-DLL3 cells = test: as above; format: cell-based; settings: 75 nM, 37° C.
# Description: as §1
# [1] = Thermal stability by differential scanning fluorimetry (DSF); format: physicochemical
# Description: Denaturing temperatures (Tm) of VHH-Fes were determined from differential scanning fluorimetry (DSF) using Protein Thermo Shift Dye Kit™ (ThermoFisher, Cat #: 4461146). Briefly, A total of 1 μg of antibody was used in each reaction. Melting curves of the antibodies were generated using an Applied Biosystems QuantStudio 7 Flex Real-Time PCR System with the recommended settings stated in the kit manual. The Tm's of the antibodies in Table 1 were then determined by using the ThermoFisher Protein Thermal Shift software (v.1.3). Tm1 of the VHH-Fcs was determined by DSF.
# human insulin = target: T1, human insulin (Homo sapiens, UniProt P01308); test: Polyreactivity ELISA; format: binding; settings: 10 μg/mL VHH-Fc; signal normalized to non-coated well
# T1 construct: 5 μg/mL of human insulin (SigmaAlrich, Cat #: I9278); purchased SigmaAlrich I9278
# Description: Polyreactivity of VHH-Fcs against negatively charged biomolecules was determined by ELISA (As in Avery et al., “Establishing in vitro in vivo correlations to screen monoclonal antibodies for physicochemical properties related to favorable human pharmacokinetics.” MAbs. 2018 February/March; 10(2):244-255). Briefly, ELISA plate was coated with 5 μg/mL of human insulin (SigmaAlrich, Cat #: I9278) and 10 μg/mL of double stranded DNA (SigmaAlrich, Cat #: D1626-250MG) overnight. The plate was blocked with ELISA buffer (PBS, 1 mM EDTA, 0.05% Tween-20, pH 7.4). 10 μg/mL of test VHH-Fcs was loaded onto the plates in quadruplicates and incubated for 2 hours. Goat anti-human Fc(0.01 ug/ml) conjugated with HRP was then added and the plate incubated for 1 hour. The signal was developed with TMB and A450 absorbance was measured with Synergy Neo2 plate reader. The signal was normalized with the signal of non-coated well for each antibody tested.
# Human HER2-His = target: T2, Human HER2-His (Homo sapiens, UniProt P04626); test: Affinity to target protein by biolayer interferometry (Octet Red96e); format: binding; settings: analyte Human HER2-His
# T2 construct: His; purchased Sinobiologics 10004-H08H
# Description: Antibody affinity was assessed using Octet Red96e (ForteBio). The association rate constant (ka), dissociation rate constant (kd) and affinity constant (KD) were measured by biolayer interferometry with anti-hIgG Fc (AHC) capture biosensors (Fortebio cat #18-5063). Each cycle was performed with orbital shake speed of 1,000 rpm. Antigen was titrated 1:2 from a suitable starting concentration in kinetics buffer (Fortebio, Cat #18-1105). A set of AHC biosensors was dipped in kinetics buffer for baseline step of 60s. Anti-Target VHH-Fc (5 μg/mL, in kinetics buffer) was loaded onto the biosensors for 240 s followed by a second baseline step of 30 s. The IgG captured sensors were dipped into buffer for single reference subtraction to compensate natural dissociation of capture IgG. Each biosensor was then dipped into corresponding concentration of target protein (human, murine or cynomolgus monomeric protein) for 600 s, followed by 1800 s of dissociation time in kinetics buffer, or conditions as optimized. A new set of AHC biosensors was used for every VHH-Fc. The data was analyzed by global fit 1:1 model for the association and dissociation step, (Octet software version v11.0).
# hFcRn = target: T3, hFcRn (Homo sapiens, UniProt P55899); test: FcRn affinity by biolayer interferometry (Octet RED96e), pH 6.0; settings: pH 6.0, 2:1 binding model
# T3 construct: purchased Sino Biological CT071-H27H-B
# Description: FcRn affinity of VHH-Fc can generally be used to predict the half-life of antibody serum clearance. (See, e.g., Datta-Mannan A et al. “FcRn affinity-pharmacokinetic relationship of five human IgG4 antibodies engineered for improved in vitro FcRn binding properties in cynomolgus monkeys.” Drug Metab Dispos. 2012 August; 40(8):1545-55). Briefly, 10 nM of biotinylated hFcRn (Sino Biological, Cat #: CT071-H27H-B) was captured with the SA biosensor using Octet RED96e (Fortebio). The hFcRN coated biosensor was dipped into the sample solutions in sodium phosphate buffer (100 mM Na2HPO4, 150 mM NaCl w/ 0.05% Tween-20, pH 6.0) with serial concentrations of tested antibodies and the association measured. The dissociation was measured by dipping the biosensors into sodium phosphate buffer without antibody. The KD values were determined using Octet Data Analysis HT 11.0 software. 2:1 (Heterogeneous Ligand) binding model was used in analysis. […] Changes in FcRn affinity were consistent across targets. Constructs with Fc Effector mutation only have no impact on FcRn affinity.
# T1 sequence (P01308 25-54 limits assumed): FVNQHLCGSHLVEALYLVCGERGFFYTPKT
# T1 sequence (P01308 90-110 limits assumed): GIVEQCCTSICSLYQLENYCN
# T3 sequence (P55899 24-297 limits assumed): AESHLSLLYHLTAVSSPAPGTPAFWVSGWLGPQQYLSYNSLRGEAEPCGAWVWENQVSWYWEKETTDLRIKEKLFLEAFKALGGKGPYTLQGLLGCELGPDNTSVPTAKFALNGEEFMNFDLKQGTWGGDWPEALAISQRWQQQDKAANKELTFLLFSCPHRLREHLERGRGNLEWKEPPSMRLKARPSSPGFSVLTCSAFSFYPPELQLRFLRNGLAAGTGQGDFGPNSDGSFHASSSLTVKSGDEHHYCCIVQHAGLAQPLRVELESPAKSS
# T3 sequence (P61769 21-119 partner): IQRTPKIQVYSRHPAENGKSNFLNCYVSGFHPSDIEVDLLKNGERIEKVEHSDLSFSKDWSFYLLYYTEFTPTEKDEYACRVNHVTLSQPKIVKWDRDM
substance,measurement,setting,value
"H101: anti-HER2 VHH-Fc (2RS15d VHH, human IgG1 Fc); FcRn wt, Fc effector wt [Compound H101]",Internalization,SHP-77 cells,internalized
same,Internalization,HEK-DLL3 cells,internalized
same,Tm1 (thermostability) by DSF,[1],67.5±0.1 Celsius
same,"Polyreactivity Assay Score, Insulin",human insulin,1.176
same,pKd,Human HER2-His,8.42
same,Kd,hFcRn,3.7 nM
